According to US20230123431:

Tests used:
[1] = biological target: T1, Lat1p (lipoate-bound subunit of pyruvate dehydrogenase, PDH), P12695
T1 chain: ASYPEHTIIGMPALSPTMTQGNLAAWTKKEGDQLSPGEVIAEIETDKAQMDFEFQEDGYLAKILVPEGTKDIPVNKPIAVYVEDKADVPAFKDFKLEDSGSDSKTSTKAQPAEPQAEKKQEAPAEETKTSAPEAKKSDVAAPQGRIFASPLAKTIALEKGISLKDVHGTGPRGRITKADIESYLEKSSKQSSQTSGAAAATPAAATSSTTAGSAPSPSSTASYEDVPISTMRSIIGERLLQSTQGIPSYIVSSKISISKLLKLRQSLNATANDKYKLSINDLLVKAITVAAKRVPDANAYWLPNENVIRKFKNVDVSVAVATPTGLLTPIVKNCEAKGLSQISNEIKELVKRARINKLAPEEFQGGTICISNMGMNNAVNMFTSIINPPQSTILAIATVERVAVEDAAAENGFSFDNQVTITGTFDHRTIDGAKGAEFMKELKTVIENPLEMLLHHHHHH

[2] = biological target: T2, Kgd2p (lipoate-bound subunit of alpha-ketoglutarate dehydrogenase, KGDC), P19262
T2 chain: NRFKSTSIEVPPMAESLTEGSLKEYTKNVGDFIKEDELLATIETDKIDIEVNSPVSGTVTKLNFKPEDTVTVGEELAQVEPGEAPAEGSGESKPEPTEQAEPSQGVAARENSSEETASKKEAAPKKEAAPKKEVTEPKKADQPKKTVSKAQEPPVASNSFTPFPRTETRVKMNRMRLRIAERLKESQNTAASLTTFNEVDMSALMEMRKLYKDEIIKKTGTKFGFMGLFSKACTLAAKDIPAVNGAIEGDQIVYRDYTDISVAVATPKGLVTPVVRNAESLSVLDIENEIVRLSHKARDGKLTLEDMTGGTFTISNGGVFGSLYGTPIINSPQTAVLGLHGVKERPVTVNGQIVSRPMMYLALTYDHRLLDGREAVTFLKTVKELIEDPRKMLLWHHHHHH

[3] = biological target: T3, Gcv3p (H protein of the glycine cleavage system), lipoylated
T3 chain: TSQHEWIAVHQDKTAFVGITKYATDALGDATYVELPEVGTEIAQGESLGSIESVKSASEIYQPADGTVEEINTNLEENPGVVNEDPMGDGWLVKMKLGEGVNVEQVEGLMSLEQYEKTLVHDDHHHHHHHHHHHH

B1: lipoamidase from Enterococcus faecalis (EfLPA) (protein)
chain: MLSLRQSIRFFKPATRTLCSSRYLLQQKPMLAQESILETTVQTETESVTTETSQTVANLESETTSQTVMQEKESSSAIAESSSRNVVAVTTETTNEIQNSGTDGKAVSAESVFSEADYKQATALELATLVREKKVTSEELVKIALAITKRENPTLNAVITLREEAALTEAKALQDTGQPFLGVPLLLKGLGQSLKGESNTNGFGFLRDQVAGGTSTFVKALQNAGFIIIGQTNYPELGWKNISDSKLYGVSVNPWNPNHYSGGSSGGAGASVAAAFVPIASGSDAGGSIRIPASWTGTVGLKPSRGVIIGNSNSAKGQTVHFGLSRTVADTNALFETLLTKKDLPAGHLSQAQPIAYTTESPAGTPVSAEAKEAVAEAVAFLKDQGYTLVEVKHPVDGERLMKNYYTVAAGSAGIADFMARQKLKRPLERNDVELLTWALFQTGKNITSEETTAAWTDIALQAQAMDEFYQQYPILLTPTTAATAPSIDNPLLKPEHAAQMEKIDQLSPAEQKQLIYDQWLTAFTYTPFTQQANLFGHPALSVPTYVSKEGLPLGIQFNSALNEDRTLLQLGALFENNHKINQPHVEEPDKDKEPDASGEPEKDKDPNASGEPDKDKEPDASGEPDKDKEPDASGEPDKDKEPDASGKPDKDKETKTSEGPIEGKDQNQNPDKAGKTTSGSSLDNSLNSSANQGTKSTESTHAFSNKSMIGKQEQLPKKVLPKAGAEVPSTFWIVLGGAFLVTSGTIYIRKTRKHHHHHHHHHHHH
- lipoic acid released (LC-MS/MS) after incubation of the purified proteins at 37 C for 2 h [1]: no lipoic acid was observed in the reaction mixtures containing EfLPA with Kgd2p or Lat1p individually
- lipoic acid released (LC-MS/MS) after incubation of the purified proteins at 37 C for 2 h [2]: no lipoic acid was observed in the reaction mixtures containing EfLPA with Kgd2p or Lat1p individually
- lipoic acid released (LC-MS/MS, confirmed by GC-MS) after incubation of the purified proteins at 37 C for 2 h [3]: Only the reaction of EfLPA with Gcv3p resulted in a peak with m/z 205.0360 (FIG. 5B) indicative of lipoic acid
